Source: patent US20260055188A1 (SHENGHE CHINA BIOPHARMACEUTICAL, published 2026)
One block for each binder: values may come before it.

Tests used:
[1] = target: T1, Human-TNFR2-His (manufacturer: SINO, CAT: 10417-H08H) (human, UniProt P20333 23-257); test: flow cytometry, bridging: CHOK1-18.2 cells (human Claudin18.2) + 150 nM antibody + human TNFR2-His, anti-His FITC detection
T1 construct: Bought protein; also called human TNFR2 protein; TNFR2 protein; not shown: His tag
T1 sequence (looked up): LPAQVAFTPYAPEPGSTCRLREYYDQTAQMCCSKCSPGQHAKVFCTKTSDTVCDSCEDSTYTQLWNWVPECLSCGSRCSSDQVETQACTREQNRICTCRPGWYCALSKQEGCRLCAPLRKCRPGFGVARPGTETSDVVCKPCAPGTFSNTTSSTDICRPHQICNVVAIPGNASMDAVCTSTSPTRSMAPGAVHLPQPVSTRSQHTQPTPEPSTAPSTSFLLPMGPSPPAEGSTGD
Procedure: Human TNFR2 protein (SINO, CAT: 10417-H08H) was sequentially added into 96-well plate with 100 μL/well, and after mixing, the 96-well plate was incubated at 4° C. for 1 h. Pre-cooled dilution was added and washed once, centrifuged (3000 rpm, 3 min), and the supernatant was discarded, and the cells were harvested. Fluorescent secondary antibody Anti-6X-his tag antibody (FITC) (manufacturer: abcam, Cat. No.: ab1206, Lot No.: GR3420599-3) was taken and diluted at the used concentration of 1:500. 100 μL of dilution was added to the blank control group, and 100 μL of fluorescent secondary antibody dilution was added to the rest of the sample groups respectively. After incubation for 0.5 h at room temperature and 4° C. protected from light, PBS was added to wash and centrifuged (3000 rpm, 3 min) twice. After discarding the supernatant, 80 μL of the dilution was added and resuspended.

[2] = target: T1, Human-TNFR2-His (manufacturer: SINO, …); test: ELISA: Human-TNFR2-His coated (0.3 µg/mL), antibody titrated, goat anti-human IgG Fc detection, OD450 (Example 2)
Procedure: Human-TNFR2-His (manufacturer: SINO, CAT: 10417-H08H, LOT: LC15NO0412) was diluted to 0.3 μg/mL with a coating solution (1×PBS, pH7.4), and coated into a 96-well ELISA plate at 100 μL/well overnight at 4° C. The coating solution was poured off. Each well was washed with 1×PBST at 300 μL, washed 4 times with a plate washer, and patted dry on a flat paper. It was blocked with 3% skim milk powder at 300 μL/well, and incubated at 37° C. for 1 h. The blocking solution was poured off, washed 4 times with a plate washer, and patted dry on a flat paper. Negative control and positive control were set up. […] The positive control and antibody were diluted to 10 μg/mL with 3% skim milk powder as the starting concentration, and then diluted by 3-fold gradient (11 gradients in total). A blank well was set up and only the diluent was added. It was incubated at 37° C. for 1 h at 100 μL/well. The liquid in the well was discarded, washed 4 times with a plate washer, and patted dry on a flat paper. Goat anti-human IgG Fc was diluted with 3% skim milk powder at 1:20000, and incubated at 37° C. for 1 h at 100 μL/well. It was washed 6 times with a plate washer, and patted dry on a flat paper. TMB color developing solution was added at 100 μL/well, and wrapped with aluminum foil. Color development was performed at 37° C. in the dark for 8 min. Termination solution 1M HCl was added to terminate the color development reaction at 100 μL/well. Readings were taken at 450 nm on an ELISA reader.

[3] = target: T2, Human-B7H3 His (manufacturer: Acro, CAT: TB73-H52E2) (human, UniProt Q5ZPR3-2 29-245); test: ELISA: Human-B7H3 His coated (0.3 µg/mL), antibody titrated, goat anti-human IgG Fc detection, OD450 (Example 3)
T2 construct: also called human B7H3 protein; B7H3 protein; not shown: His tag
T2 sequence (looked up): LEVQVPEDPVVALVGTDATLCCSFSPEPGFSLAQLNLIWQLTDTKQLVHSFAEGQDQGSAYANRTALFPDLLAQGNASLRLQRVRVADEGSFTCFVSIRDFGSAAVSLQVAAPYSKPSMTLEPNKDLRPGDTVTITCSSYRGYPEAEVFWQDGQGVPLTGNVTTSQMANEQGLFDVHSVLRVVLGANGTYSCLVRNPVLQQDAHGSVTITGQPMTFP
Procedure: Human-B7H3 His (manufacturer: Acro, CAT: TB73-H52E2, LOT: 2052-21AXF1-YS) was diluted to 0.3 μg/mL with a coating solution (1×PBS, pH7.4), and coated into a 96-well ELISA plate at 100 μL/well overnight at 4° C. The coating solution was poured off. Each well was washed with 1×PBST at 300 μL, washed 4 times with a plate washer, and patted dry on a flat paper. It was blocked with 3% skim milk powder at 300 μL/well, and incubated at 37° C. for 1 h. The blocking solution was poured off, washed 4 times with a plate washer, and patted dry on a flat paper. Negative control and positive control were set up. […] The variable region of the antibody sequence of the positive control consists of SEQ ID NO: 1 and SEQ ID NO: 5, with the constant region of human IgG1 added (SEQ ID NO: 85 and SEQ ID NO: 86). The positive control and antibody were diluted to 10 μg/mL with 3% skim milk powder as the starting concentration, and then diluted by 3-fold gradient (11 gradients in total). A blank well was set up and only the diluent was added. It was incubated at 37° C. for 1 h at 100 μL/well. The liquid in the well was discarded, washed 4 times with a plate washer, and patted dry on a flat paper. Goat anti-human IgG Fc was diluted with 3% skim milk powder at 1:20000, and incubated at 37° C. for 1 h at 100 μL/well. It was washed 6 times with a plate washer, and patted dry on a flat paper. TMB color developing solution was added at 100 μL/well, and wrapped with aluminum foil. Color development was performed at 37° C. in the dark for 8 min. Termination solution 1M HCl was added to terminate the color development reaction at 100 μL/well. Readings were taken at 450 nm on an ELISA reader.

[4] = target: T1, Human-TNFR2-His (manufacturer: SINO, …); test: BLI, antibody on AHC sensor, 100 nM human-TNFR2-His in solution
Procedure: The AHC sensor was soaked in 0.02% PBST (0.02% Tween 20, pH 7.4, 1×PBS) as a buffer for 600 s to remove the sucrose covering the sensor surface. The AHC sensor was equilibrated with 0.02% PBST (0.02% Tween 20, pH 7.4, 1×PBS) as a buffer for 60 s, the antibody in the sample plate was solidified for 300 s, and the secondary equilibration buffer was used for 180 s. 100 nM human-TNFR2-His (manufacturer: SINO, CAT: 10417-H08H, LOT: LC12SE2902) protein was bound to the antibody for 300 s and then dissociated for 600 s. After dissociation, 10 mM glycine (pH 2.0) was used as a regeneration buffer for 30 s. The sensor was regenerated with 10 mM glycine (pH 2.0).

[5] = target: T2, Human-B7H3 His (manufacturer: Acro, …); test: BLI, antibody on AHC sensor, 100 nM His-tagged protein (Acro TB73-H52E2) in solution

- E1 Mean FITC-A [1]: 217000
B1: TC-A2 (bispecific antibody, human IgG1, kappa)
light: EIVMTQSPPTLSLSPGERVTLSCKSSQSLLNSGNQKNYLTWYQQKPGQAPRLLIYWASTRESSIPARFSGSGSGTDFTLTISSLQPEDFAVYYCQNNYIYPLTFGGGTKLELKRTVAAPSVFIFPPSDEQLKSGTASVVCLLNNFYPREAKVQWKVDNALQSGNSQESVTEQDSKDSTYSLSSTLTLSKADYEKHKVYACEVTHQGLSSPVTKSFNRGEC
heavy: not shown

- binding result [2]: binds
B2: TB-E (bispecific antibody, human IgG1, kappa)
light: DIVMTQSPATLSVTPGDRVSLSCRASQSISDYLHWYQQKSHESPRLLIKYASQSISGIPSRFSGSGSGSDFTLSINSVEPEDVGVYYCQNGHSFPLTFGAGTKLELKRTVAAPSVFIFPPSDEQLKSGTASVVCLLNNFYPREAKVQWKVDNALQSGNSQESVTEQDSKDSTYSLSSTLTLSKADYEKHKVYACEVTHQGLSSPVTKSFNRGECGGGGSGGGGSEVQLVQSGAEVKKPGATVKISCKVSGYSITDYLLHWVQQAPGKCLEWMGWIDPEDAKTKYGQKFQSRVTITADTSTDTAYMELSSLRSEDTAVYYCAANSGTGTMDAWGQGTLVTVSSGGGGSGGGGSGGGGSDIVMTQSPATLSVSPGERATLSCKASQNVGSNVDWYQQKPGQSPRVLIYKASIRYTGIPARFSGSGSGTEFTLTISILQSEDFAVYFCMQSKSYPITFGCGTKLEIK
heavy: not shown
notes: also called antibody TB-E

- E1 Mean FITC-A [1]: 248000
B3: TC-F2 (bispecific antibody, human IgG1, kappa)
light: EVQLVQSGAEVKKPGATVKISCKVSGYSITDYLLHWVQQAPGKCLEWMGWIDPEDAKTKYGQKFQSRVTITADTSTDTAYMELSSLRSEDTAVYYCAANSGTGTMDAWGQGTLVTVSSGGGGSGGGGSGGGGSDIVMTQSPATLSVSPGERATLSCKASQNVGSNVDWYQQKPGQSPRVLIYKASIRYTGIPARFSGSGSGTEFTLTISILQSEDFAVYFCMQSKSYPITFGCGTKLEIKGGGGSGGGGSGGGGSEIVMTQSPPTLSLSPGERVTLSCKSSQSLLNSGNQKNYLTWYQQKPGQAPRLLIYWASTRESSIPARFSGSGSGTDFTLTISSLQPEDFAVYYCQNNYIYPLTFGGGTKLELKRTVAAPSVFIFPPSDEQLKSGTASVVCLLNNFYPREAKVQWKVDNALQSGNSQESVTEQDSKDSTYSLSSTLTLSKADYEKHKVYACEVTHQGLSSPVTKSFNRGEC
heavy: not shown

- E1 Mean FITC-A [1]: 260000
B4: TC-E2 (bispecific antibody, human IgG1, kappa)
light: EIVMTQSPPTLSLSPGERVTLSCKSSQSLLNSGNQKNYLTWYQQKPGQAPRLLIYWASTRESSIPARFSGSGSGTDFTLTISSLQPEDFAVYYCQNNYIYPLTFGGGTKLELKRTVAAPSVFIFPPSDEQLKSGTASVVCLLNNFYPREAKVQWKVDNALQSGNSQESVTEQDSKDSTYSLSSTLTLSKADYEKHKVYACEVTHQGLSSPVTKSFNRGECGGGGSGGGGSEVQLVQSGAEVKKPGATVKISCKVSGYSITDYLLHWVQQAPGKCLEWMGWIDPEDAKTKYGQKFQSRVTITADTSTDTAYMELSSLRSEDTAVYYCAANSGTGTMDAWGQGTLVTVSSGGGGSGGGGSGGGGSDIVMTQSPATLSVSPGERATLSCKASQNVGSNVDWYQQKPGQSPRVLIYKASIRYTGIPARFSGSGSGTEFTLTISILQSEDFAVYFCMQSKSYPITFGCGTKLEIK
heavy: not shown

- binding result [2]: binds
- EC50 (read off the curve) [3]: ~0.7 nM
B5: TB-A2 (bispecific antibody, human IgG4 S228P, kappa)
light: DIVMTQSPATLSVTPGDRVSLSCRASQSISDYLHWYQQKSHESPRLLIKYASQSISGIPSRFSGSGSGSDFTLSINSVEPEDVGVYYCQNGHSFPLTFGAGTKLELKRTVAAPSVFIFPPSDEQLKSGTASVVCLLNNFYPREAKVQWKVDNALQSGNSQESVTEQDSKDSTYSLSSTLTLSKADYEKHKVYACEVTHQGLSSPVTKSFNRGEC
heavy: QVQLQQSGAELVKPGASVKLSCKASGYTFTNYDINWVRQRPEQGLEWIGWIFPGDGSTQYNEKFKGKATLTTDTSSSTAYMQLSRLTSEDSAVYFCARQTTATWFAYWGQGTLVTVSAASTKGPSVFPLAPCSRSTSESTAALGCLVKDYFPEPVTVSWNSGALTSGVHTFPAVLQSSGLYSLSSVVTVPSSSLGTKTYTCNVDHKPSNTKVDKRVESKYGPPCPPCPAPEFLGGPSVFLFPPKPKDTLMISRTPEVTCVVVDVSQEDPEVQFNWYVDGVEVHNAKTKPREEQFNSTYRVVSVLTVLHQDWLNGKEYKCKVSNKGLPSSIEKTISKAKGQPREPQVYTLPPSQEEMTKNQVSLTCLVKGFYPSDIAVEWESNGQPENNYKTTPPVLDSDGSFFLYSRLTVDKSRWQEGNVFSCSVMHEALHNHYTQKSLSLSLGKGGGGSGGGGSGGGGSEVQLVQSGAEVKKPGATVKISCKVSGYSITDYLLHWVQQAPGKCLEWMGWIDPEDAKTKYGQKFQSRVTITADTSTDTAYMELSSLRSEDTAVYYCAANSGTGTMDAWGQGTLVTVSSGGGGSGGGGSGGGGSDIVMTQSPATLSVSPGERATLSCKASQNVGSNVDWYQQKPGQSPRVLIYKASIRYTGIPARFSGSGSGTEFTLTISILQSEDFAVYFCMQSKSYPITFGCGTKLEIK
notes: also called antibody TB-A2

- binding result [2]: binds
- EC50 (read off the curve) [3]: ~0.2 µg/mL
B6: TB-B (bispecific antibody, human IgG1, kappa)
light: DIVMTQSPATLSVTPGDRVSLSCRASQSISDYLHWYQQKSHESPRLLIKYASQSISGIPSRFSGSGSGSDFTLSINSVEPEDVGVYYCQNGHSFPLTFGAGTKLELKRTVAAPSVFIFPPSDEQLKSGTASVVCLLNNFYPREAKVQWKVDNALQSGNSQESVTEQDSKDSTYSLSSTLTLSKADYEKHKVYACEVTHQGLSSPVTKSFNRGEC
heavy: not shown
notes: also called antibody TB-B

- Kd [4]: 0.234 nM
- koff [4]: 5.22e-05 s⁻¹
- kon [4]: 223000 M⁻¹ s⁻¹
- Kd [5]: 22 nM
- koff [5]: 0.000894 s⁻¹
- kon [5]: 40700 M⁻¹ s⁻¹
B7: TB-A1 (bispecific antibody, human IgG1, kappa)
light: DIVMTQSPATLSVTPGDRVSLSCRASQSISDYLHWYQQKSHESPRLLIKYASQSISGIPSRFSGSGSGSDFTLSINSVEPEDVGVYYCQNGHSFPLTFGAGTKLELKRTVAAPSVFIFPPSDEQLKSGTASVVCLLNNFYPREAKVQWKVDNALQSGNSQESVTEQDSKDSTYSLSSTLTLSKADYEKHKVYACEVTHQGLSSPVTKSFNRGEC
heavy: not shown
notes: also called antibody TB-A1

- EC50 (read off the curve) [3]: ~0.2 µg/mL
- Kd [4]: 1.35 nM
- koff [4]: 0.000531 s⁻¹
- kon [4]: 394000 M⁻¹ s⁻¹
- Kd [5]: 9.45 nM
- koff [5]: 0.000311 s⁻¹
- kon [5]: 33000 M⁻¹ s⁻¹
B8: TB-D1 (bispecific antibody, human IgG1, kappa)
light: DIVMTQSPATLSVTPGDRVSLSCRASQSISDYLHWYQQKSHESPRLLIKYASQSISGIPSRFSGSGSGSDFTLSINSVEPEDVGVYYCQNGHSFPLTFGAGTKLELKRTVAAPSVFIFPPSDEQLKSGTASVVCLLNNFYPREAKVQWKVDNALQSGNSQESVTEQDSKDSTYSLSSTLTLSKADYEKHKVYACEVTHQGLSSPVTKSFNRGEC
heavy: not shown
notes: also called antibody TB-D1
